# Values joined by “and” are separate entries in the source; they are usually repeats but may differ in a detail not shown here. Identical values can stand only once.
# Assays:
# [1] = target: HIV-1 integrase (IN) (HIV-1); assay: SEC
# [2] = target: HIV-1 integrase (IN) (HIV-1); assay: cross-linking
substance,measurement,setting,value
HIV-1 integrase (IN) (enzyme),stoichiometry N,[1],2 and 4
same,stoichiometry N,[2],2

# From article PMC2602759
